Source: US10925867B2, “Immunotherapeutic dosing regimens comprising pomalidomide and an anti-CS1 antibody for treating cancer” (Bristol-Myers Squibb Company, priority 2015, dated 2021)

Columns and labels:
[1] = system: relapsed or refractory multiple myeloma; conditions: with lenalidomide and low-dose dexamethasone; 10 mg/kg dose; cited from earlier work
[2] = Infusion reactions by infusion rate, phase 2 portion of CA204003 (1703); format: in vivo, human
Procedure: (§1) The maximum infusion rate of 2 ml/min was initially explored in the phase 1 and 2 elotuzumab clinical trials. However, the phase 2 portion of the CA204003 (1703) and the CA204009 studies allowed an infusion rate escalation in subjects without infusion reactions for a minimum of 4 cycles of study therapy at 2 ml/min. The infusion rates are allowed to increase by 1 ml/min per cycle, up to 5 ml/min.
(§2) Preliminary safety data of the 5 ml/minute infusion rate are based on an analysis of subjects who escalated the elotuzumab infusion to 5 ml/minute in the CA204003 (1703) and CA204009 studies. In the phase 2 portion of the CA204003 (1703) study, 33% of all study infusions and 42.5% of subjects received infusions at 5 ml/min. In subjects who were administered infusions ≤2 ml/min, there were 7 grade 1-2 infusion reactions, and 1 grade 3-4 infusion reaction. […] In the randomized phase 2 CA204009 study, 27% of all subjects and 9% of all infusions on the investigational arm received infusions at 5 ml/min.

[3] = Infusion reactions in Study CA204009; format: in vivo, human
Description: Elotuzumab can cause infusion reactions. Infusion reactions were reported in approximately 10% of patients treated with elotuzumab, lenalidomide and dexamethasone in Study CA204004 and in 7% of patients treated with elotuzumab, bortezomib and dexamethasone in Study CA204009. All reports of infusion reaction were ≤Grade 3. Grade 3 infusion reactions occurred in 1% of patients in Study CA204004 and in no patients in Study CA204009. The most common symptoms of an infusion reaction included fever, chills and hypertension. In Study CA204004, 5% of patients required interruption of the administration of elotuzumab due to infusion reaction for a median of 25 minutes and 1% of patients discontinued due to infusion reactions. In Study CA204009, 20% of patients required interruption of the administration of elotuzumab for a median of 40 minutes and none discontinued due to infusion reactions. Of the patients who experienced an infusion reaction, 70% (23/33) in Study CA204004 and 80% (4/5) in Study CA204009 had them during the first dose.
as §1, §2

For “Elotuzumab: humanized monoclonal IgG1 antibody directed against CS-1; VL SEQ ID NO:1, VH SEQ ID NO:2”, which PFS [1] is on record?
Its PFS is 33 month.

And the response rate [1]?
The response rate was 92%.

What about the “grade 3-4 infusion reactions” value ([2]; infusion rates >2 ml/min) of the same substance?
Its value is “no grade 3-4 infusion reactions”.

And the “number of grade 1-2 infusion reactions” value ([2]; infusion rates >2 ml/min)?
The value was 1.

What about the “number of grade 1-2 infusion reactions” value ([2]; infusions ≤2 ml/min) of the same substance?
Its value is 7.

And the “number of grade 3-4 infusion reactions” value ([2]; infusions ≤2 ml/min)?
Its value is 1.

What about the “median duration of interruption” value [3] of the same substance?
The value was 40 min.

What about the “patients discontinued due to infusion reactions” value [3] of the same substance?
The value was “none”.

What about the “patients requiring interruption of administration” value [3] of the same substance?
The value was 20%.

And the “patients with Grade 3 infusion reactions” value [3]?
The value was “no patients”.

What about the “patients with infusion reaction who had it during the first dose” value [3] of the same substance?
Its value is 80%.

What about the infusion reactions ([3]; subjects reaching infusion rates >2 ml/min) of the same substance?
Its infusion reactions is “no infusion reactions of any grade”.

And the “patients with infusion reactions” value ([3]; with bortezomib and dexamethasone)?
Its value is 7%.
